Laboratory results published in article PMC5413351 (2017).
Where no end group is shown, it is not given here. fluorescein‑5‑maleimide = fluorescein-5-maleimide

What was measured:
Test in all cases: FP
[1] = target: Vps4^101-437-Hcp1 (S. cerevisiae | Pseudomonas aeruginosa, UniProt P52917 101-437)
[2] = target: Vps4^101-437-Hcp1 K321A (S. cerevisiae | Pseudomonas aeruginosa, UniProt P52917 101-437, K321A)
[3] = target: Vps4^101-437-Hcp1 E322A (S. cerevisiae | Pseudomonas aeruginosa, UniProt P52917 101-437, E322A)
[4] = target: Vps4^101-437-Hcp1 R325D (S. cerevisiae | Pseudomonas aeruginosa, UniProt P52917 101-437, R325D)
[5] = target: T1, Vps4^101-437 L151D (S. cerevisiae, UniProt P52917 101-437, L151D)
T1 sequence: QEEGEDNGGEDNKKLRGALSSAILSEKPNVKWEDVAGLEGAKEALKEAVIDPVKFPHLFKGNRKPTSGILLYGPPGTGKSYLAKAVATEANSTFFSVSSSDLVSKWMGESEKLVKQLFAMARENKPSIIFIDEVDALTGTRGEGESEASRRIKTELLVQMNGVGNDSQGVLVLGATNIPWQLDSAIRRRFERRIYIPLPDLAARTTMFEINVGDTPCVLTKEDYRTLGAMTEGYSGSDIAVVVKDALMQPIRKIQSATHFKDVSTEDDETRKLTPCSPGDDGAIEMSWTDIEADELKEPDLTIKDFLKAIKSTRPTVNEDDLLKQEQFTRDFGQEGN

B1: fluorescently labeled Vta1^VSL S278C (domain or fragment)
chain: MASNAARVVATAKDFDKVGLGIIGYYLQLYAVELILSEEDRSQEMTALATELLDTIEAFKKEIGGESEAEDSDKSLHVMNTLIHDQEKAKIYMLNFTMSLYNEKLKQLKDGPWDVMLKRSLWCCIDLFSCILHLWKENISETSTNSLQKRIKYCKIYLSKLAKGEIGSSDEKTLDYADFADDSEEIKDEDVDHQTSDLENNNNDKVEGLAPKDQTTSYEPVDEVPEFIDDADSVNEEEQTVDKNEDAITKDEQQVVKKEVDLTRPSAPSEPAAAEHKCYTKDELTKIMDRASKIEQIQKLAKYAISALNYEDLPTAKDELTKALDLLNSI
modifications: fluorescein-5-maleimide on the single cysteine (S278C)
B1 was tested, and the Kd [1] was 184 nM, the Kd [2] was 367 nM and the Kd [3] was 72 nM. The Kd [4] was 564 nM.

B2: fluorescently labeled Vta1^VSL S278C (domain or fragment)
chain: C(fluorescein‑5‑maleimide)YTKDELTKIMDRASKIEQIQKLAKYAISALNYEDLPTAKDELTKALDLLNSI
B2 gave a Kd [5] of 4400 nM.
